In patent US20260028417A1 (SICHUAN KELUN BIOTECH BIOPHARMACEUTICAL, published 2026):

T1: monkey HER3 protein (extracellular sequence with six histidines at the C-terminal) (monkey)
T1 construct: Made in HEK293 cells; also called Monkey HER3-His
T1 chain: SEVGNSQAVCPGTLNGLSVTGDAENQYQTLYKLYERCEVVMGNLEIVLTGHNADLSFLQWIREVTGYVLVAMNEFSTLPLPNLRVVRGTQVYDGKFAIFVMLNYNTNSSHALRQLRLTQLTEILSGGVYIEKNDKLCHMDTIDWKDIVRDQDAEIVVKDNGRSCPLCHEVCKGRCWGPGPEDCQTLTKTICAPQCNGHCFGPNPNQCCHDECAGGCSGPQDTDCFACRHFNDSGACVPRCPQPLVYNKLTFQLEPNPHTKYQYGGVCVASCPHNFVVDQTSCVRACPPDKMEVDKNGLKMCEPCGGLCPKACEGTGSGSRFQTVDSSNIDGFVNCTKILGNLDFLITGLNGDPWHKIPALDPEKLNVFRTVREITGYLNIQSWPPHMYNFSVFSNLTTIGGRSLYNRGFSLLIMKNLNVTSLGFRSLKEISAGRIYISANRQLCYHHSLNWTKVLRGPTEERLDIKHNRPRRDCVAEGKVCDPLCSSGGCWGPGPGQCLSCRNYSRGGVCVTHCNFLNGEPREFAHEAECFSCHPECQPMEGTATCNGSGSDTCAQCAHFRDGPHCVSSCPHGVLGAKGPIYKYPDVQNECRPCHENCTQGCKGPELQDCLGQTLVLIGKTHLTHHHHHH


Assays:
human HER3 on cells [1] = target: T2, human HER3 on cells (human, UniProt P21860 20-1342); experiment: flow cytometry on T47D cells
T2 construct: whole, on cells; also called T47D; NCI-N87
Procedure: (§1) Data processing: the Median PE values were exported, then imported into GraphPad Prism 6 software, and EC50 values were calculated.

human HER3 on cells [2] = target: T2, human HER3 on cells; experiment: flow cytometry on NCI-H358 cells
Procedure: as §1

[3] = target: T3, human HER3 protein (extracellular sequence with six histidines at the C-terminal) (human, UniProt P21860 20-643); experiment: BLI (ForteBio), antibody captured on Protein A sensor, human HER3-His in solution, 1:1 global fit
T3 construct: extracellular domain; Made in HEK293 cells; also called Human HER3-His
Procedure: (§2) The measured results were entered into Data Analysis 11.0 software, by using 1:1 mode, and global fitting; the results were analyzed to obtain the association rate, dissociation rate and affinity constant.

[4] = target: T1, monkey HER3 protein (extracellular …); experiment: BLI (ForteBio), antibody captured on Protein A sensor, monkey HER3-His in solution, 1:1 global fit
Procedure: as §2

human HER3 on cells [5] = target: T2, human HER3 on cells; experiment: competition flow cytometry on adherent cells (cell line not named in paragraph 175); competitor: 100H7D3-hIgG-Bio, final 200 ng/ml; PE streptavidin
Source text: Data processing: the Median PE values were exported, and then imported into GraphPad Prism 6 software for nonlinear curve fitting (4-parameter).

[6] = target: T1, monkey HER3 protein (extracellular …); experiment: ELISA, coated monkey HER3-His
Procedure: (§3) The plate was washed 5 times with PBST (0.2% Tween-20), and dried, then 100 μl of TMB (InnoReagents) chromogenic substrate was added to each well, reacted at room temperature for 3-5 minutes, then 50 μl of 2N H₂SO₄ was added to each well to stop the chromogenic reaction, and the absorbance value at OD450 nm was read with a microplate reader. The raw data were imported into GraphPad Prism 6 software for nonlinear curve fitting, and EC50 values were calculated.

rat HER3 protein [7] = target: T4, rat HER3 protein (rat, UniProt Q62799 20-643); experiment: ELISA, coated rat HER3-His
T4 construct: whole entry named; also called Rat HER3-His; rat protein
T4 sequence (Q62799 20-643): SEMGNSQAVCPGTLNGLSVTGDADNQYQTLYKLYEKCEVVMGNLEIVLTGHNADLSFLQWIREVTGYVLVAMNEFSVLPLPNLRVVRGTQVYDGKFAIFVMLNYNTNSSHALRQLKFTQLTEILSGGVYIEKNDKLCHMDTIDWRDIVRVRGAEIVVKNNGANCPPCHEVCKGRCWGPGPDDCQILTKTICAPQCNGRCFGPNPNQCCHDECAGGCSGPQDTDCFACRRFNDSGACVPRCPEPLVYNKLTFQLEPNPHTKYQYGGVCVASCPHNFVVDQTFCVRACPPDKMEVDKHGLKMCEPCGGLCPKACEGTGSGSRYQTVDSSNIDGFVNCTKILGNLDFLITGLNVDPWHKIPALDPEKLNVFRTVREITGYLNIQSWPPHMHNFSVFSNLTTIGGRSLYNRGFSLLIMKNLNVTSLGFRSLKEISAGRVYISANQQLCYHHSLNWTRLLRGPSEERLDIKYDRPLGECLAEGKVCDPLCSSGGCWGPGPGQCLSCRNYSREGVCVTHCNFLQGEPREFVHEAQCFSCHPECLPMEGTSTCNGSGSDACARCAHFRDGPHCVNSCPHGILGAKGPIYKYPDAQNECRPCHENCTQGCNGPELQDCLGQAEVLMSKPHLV
Procedure: as §3

human HER3 on cells [8] = target: T2, human HER3 on cells; experiment: flow cytometry on NCI-N87 cells
Procedure: as §1

human HER3 on cells [9] = target: T2, human HER3 on cells; experiment: cell-based or functional assay
[10] = target: T3, human HER3 protein (extracellular …); experiment: ELISA, coated human HER3-His
Procedure: as §3

[11] = target: T1, monkey HER3 protein (extracellular …); experiment: ELISA, coated monkey HER3 protein, chimeric antibody
Procedure: (§4) The plate was washed 5 times with PBST (0.2% Tween-20). After the plate was dried, 100 μl of TMB (CoWin Biotech) chromogenic substrate was added to each well, reacted at room temperature for 3-5 minutes; 50 μl of 2N H₂SO₄ was added to each well to stop the chromogenic reaction, and absorbance value at OD450 nm was read with a microplate reader. The raw data were imported into GraphPad Prism 6 software for nonlinear curve fitting, and the EC50 values of each antibody binding to human HER3 and monkey HER3 were calculated.

[12] = target: T3, human HER3 protein (extracellular …); experiment: ELISA, coated human HER3 protein, chimeric antibody
Procedure: as §4

rat HER3 protein [13] = target: T4, rat HER3 protein; experiment: ELISA, rat HER3 protein coated at 1 µg/ml, anti-human IgG-HRP, OD450
Procedure: as §3

[14] = target: T3, human HER3 protein (extracellular …); experiment: competition ELISA on coated human HER3 protein (1 µg/ml); competitor: biotin-labelled 47A3E3-hIgG (47A3E3-hIgG-Bio, diluted to 15 ng/mL); streptavidin-HRP, OD450
Procedure: (§5) The plate was washed with PBST (0.2% Tween-20) for 3 times, and dried, 100 μl of diluted Peroxidase-conjugated Streptavidin secondary antibody (Proteintech) was added to each well, and incubated at room temperature for 1 hour; the plate was washed 5 times with PBST (0.2% Tween-20), and dried, 100 μl of TMB (InnoReagents) chromogenic substrate was added to each well, reacted at room temperature for 3-5 minutes; 50 μl of 2N H₂SO₄ was added to each well to stop the chromogenic reaction, and OD450 nm absorbance value was read with a microplate reader. The raw data were imported into GraphPad Prism 6 software for nonlinear curve fitting (4-parameter).

[15] = target: T3, human HER3 protein (extracellular …); experiment: competition ELISA on coated human HER3 protein (1 µg/ml); competitor: biotin-labelled U1-59 (U1-59-Bio, diluted to 50 ng/ml); streptavidin-HRP, OD450
Procedure: as §5

Row | EC50 (human HER3 on cells [1]) | EC50 (human HER3 on cells [2]) | Kd [3] | koff [3] | kon [3] | Kd [4] | koff [4] | kon [4] | IC50 (read off the curve) (human HER3 on cells [5]) | EC50 [6] | EC50 (rat HER3 protein [7]) | EC50 (human HER3 on cells [8]) | ADCC activity, EC50 (Jurkat-NFAT/luciferase-CD16a reporter with CHO-S-hHER3 target cells) (human HER3 on cells [9]) | EC50 [10] | EC50 [11] | EC50 [12] | binding result (rat HER3 protein [13]) | IC50 (read off the curve) [14] | IC50 (read off the curve) [15] | Binder
1 | 0.203 µg/mL | 0.29 µg/mL | 7.47 nM | 0.00226 s⁻¹ | 302000 M⁻¹ s⁻¹ | 5.44 nM | 0.000926 s⁻¹ | 170000 M⁻¹ s⁻¹ | ~0.4 µg/mL | 0.0131 µg/mL | 0.00937 µg/mL | 0.218 µg/mL | 0.0257 µg/mL | 0.00849 µg/mL | – | – | – | – | – | 100H7D3-hIgG (anti-human HER3 fully human antibody) (antibody, V domains shown, Human IgG1/kappa, expressed in CHO-S cells; also called 100H7D3-hIgG-Bio (biotin-labelled)) VH: EVQLVESGGGVVLPGRSLRLSCAASGFTFSRNAMHWVRQAPGKGLEWVAVIWHDGSNKYYGDSVKGRFTISRDNSKNTLYLQMDSLTAEDTAVYYCARDRGASDFRGQGTLVTVSS VL: DIQMTQSPSTLSASVGDRVTITCRASQSINNWLAWYQQKPEKAPKLLIYKASSLESGVPSRFSGSGSGTEFTLTISSLQPDDFATYYCQQYNSYSLTFGGGTKVEIKR
2 | – | – | – | – | – | – | – | – | – | – | – | – | – | – | 0.0187 µg/mL | 0.0131 µg/mL | – | – | – | 100H7D3 (anti-human HER3 chimeric antibody) (antibody, V domains shown) VH: EVQLVESGGGVVLPGRSLRLSCAASGFTFSRNAMHWVRQAPGKGLEWVAVIWHDGSNKYYGDSVKGRFTISRDNSKNTLYLQMDSLTAEDTAVYYCARDRGASDFRGQGTLVTVSS VL: DIQMTQSPSTLSASVGDRVTITCRASQSINNWLAWYQQKPEKAPKLLIYKASSLESGVPSRFSGSGSGTEFTLTISSLQPDDFATYYCQQYNSYSLTFGGGTKVEIK
3 | 0.0601 µg/mL | 0.0989 µg/mL | 29.1 nM | 0.0104 s⁻¹ | 356000 M⁻¹ s⁻¹ | 74.8 nM | 0.0111 s⁻¹ | 148000 M⁻¹ s⁻¹ | – | 0.00666 µg/mL | – | 0.0923 µg/mL | 0.0223 µg/mL | 0.00713 µg/mL | – | – | no binding | ~0.5 µg/mL | ~0.1 µg/mL | 47A3E3-hIgG (anti-human HER3 fully human antibody) (antibody, V domains shown, Human IgG1/kappa, expressed in CHO-S cells; also called 47A3E3-hIgG-Bio (biotin-labelled)) VH: EVQLQESGPGLVKPSQTLSLTCAISGDSVSSSQSTWNWIRQSPSRGLEWLGRTFYRSRWYNDYALSMKSRITINPDTSKNQFSLQLNPVTPEDTAVYYCARDTYYYGSGGFDYWGQGSRVTVSS VL: DIQMTQSPSTLSASVGDRVTITCRASQSLSRWLAWYQQKPEKAPKLLIYKASSLESGVPSRFSGSGSGTEFTLTISTLQPDDFATYYCQQYKNYYSFGQGTKLEIKR
